According to the supplement of paper PMC9170038:

How the values were obtained:
MS2 coat protein [1] = test: apparent KD of MS2 coat protein, switch OFF state (with FMN for OFF switches, without FMN for ON switches); designed switch direction (-1 OFF switch, 1 ON switch): -1; higher = weaker reporter binding; conditions: FMN input: 0 or 200 uM; Eterna round: R93 (includes R88 designs)
Summary of the method: (§1)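 Each design's apparent KD comes from the median of binding-curve fits to its normalised clusters. Those clusters carried RNA switches transcribed on-chip from Illumina sequencing clusters. SNAP-549-labelled MS2 coat protein was titrated onto them in twofold steps (0.7 or 1.5 nM to 3 µM; per step 0.8–1.5 h down to 10–20 min). Conditions were 100 mM Tris-HCl pH 7.5, 80 mM KCl, 4 mM MgCl2, without or with constant ligand.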

MS2 coat protein [2] = test: apparent KD of MS2 coat protein, switch ON state; designed switch direction (-1 OFF switch, 1 ON switch): -1; higher = weaker reporter binding; conditions: FMN input: 0 or 200 uM; Eterna round: R93 (includes R88 designs)
Summary of the method: as §1

Sequence	apparent KD of MS2 coat protein (MS2 coat protein [1]) [nM]	apparent KD of MS2 coat protein (MS2 coat protein [2]) [nM]
UACGUAUGAGGAUAUACAAACAGAAAAAUCAGACGUAAGUGACAUGAGGAUCACCCAUGUAGAAGGCAUAUGCA [JR_Exc002_Sub906]	19.7	26.9
AAGACUACAGGAUAUACAUGAGGAUCACCCAUGUAACUGACGGAUAGAUGACGGAGAAGUAGAAGGGUAGUCAA [Ruby 38]	26.4	16.9
CUCUAGUCAGGAUAUCCAAGAAAAGAAGAGAAAGAAAAGAAGGAGAAGGGACAUGAGGAUCACCCAUGUAAGAA [EteRNA is fun!]	46.4	75.9
AAAUGCUGAGGAUAUACAUGAGGAUCACCCAUGUAAAAUAAAUAAUGGAUGUAAACGUGUAGAAGGCAGCAUAA [Exclusion 3.14b (FMN+ favored )]	23	79.6
AACAGUACAGGAUAUACAUGAGGAUCACCCAUGUGGGAAAAAAGAUCGAGAGAUCCAUGUAGAAGGGUACUGGA [JL In the Red 06]	25.6	85.5
AAAAAACAUGAGGAUCACCCAUGUAAGGAUAUGCGAUGGAAAAUAAAAAUAAAACAUAGCAGAAGGUACACCAA [Amethyst 82]	28.2	29.4
ACCGAUCGAGGAUAUACAUGAGGAUCACCCAUGUAACCCAGAAGAAAGGCCUCAGGAUGUAGAAGGCGACGCAA [JR_Exc003_Sub406]	17.7	16.3
CUCAAGUAAGGAUAUCCAAGAAAAGAAGAGAAAGAAAAGAAGGAGAAGGUACAUGAGGAUCACCCAUGUAAGAA [EteRNA is fun!]	23.7	28.7
UAAAGACAUGAGGAUCACCCAUGUGAGGAUAUCGGAGAUAACAGAACAUCAAGUUCAGCGAGAAGGCACAGGAA [JR_Exc001_Sub403]	65.5	47
AGUCGGCGAGGAUAUACAUGAGGAUCACCCAUGUGAGAGAAAAAAGUGAGCAAGAAAUGUAGAAGGCGCUGACA [JL Lego Mod 3]	61.9	156
GAAAAGUCAGGAUAUGUGGAAAAAAUAAAAAAAAUAAAAACACAGAAGGGACAUGAGGAUCACCCAUGUUAAAA [Mat - Exclusion 4 - Mayanna - D137]	28.8	52.4
AGGAAACAUGAGGAUCACCCAUGUAAGGAUAUGAACGAAAUAAAAUAAAAAUAAAAGUUCAGAAGGUACAAAAA [Mat - Exclusion 1 - Eli mod - D8]	39.3	31.8
AGCUAGAGAGGAUAUACAUAAAAAAAAAAAGUCUGAUCCCUACAUGAGGAUCACCCAUGUAGAAGGCUCUGGCA [Ex2 Design 157: Sub-opt 21]	38.5	38.1
AACCGACAUGAGGAUCACCCAUGUAAGGAUAUGCAUCCUUCGGCCCGGACCAGAGGAAGCAGAAGGUGCAGGGA [Iscegebia]	41.2	43.1
AGGAAACAUGAGGAUCACCCAUGUCAGGAUAUUGAAAAGAAAAGAAAAGAAAGAAGAACAAGAAGGGACAAGAA [Mekh]	20.6	27.2
AAAAGUGGAGGAUAUACAUGAGGAUCACCCAUGUGUAAAAAUAAAUACACAAAAGAAAGUAGAAGGCCACAAAG [Mat - Exclusion 3 - Mayanna mod - D117]	128	32.2
GGUUGGCGAGGAUAUACAUGAGGAUCACCCAUGUGAGAAAAAAAAGUGAGAAAGAAAAGUAGAAGGCGCUGACG [salish99-ex3-49]	157	40.1
AGUCGGCGAGGAUAUACAUGAGGAUCACCCAUGUGAGAGAAUAAAGUGAGUUAGACAAGUAGAAGGCGCUGACA [JL Lego Mod 10]	226	40.5
AGAAAACAUGAGGAUCACCCAUGUAAGGAUAUGCUGAAAAAACACUGGAAACAGUGCAGCAGAAGGUACAAAGA [Mat - Exclusion 1 - Eli mod - D99]	43.3	22.1
AAAAGGUGAGGAUAUAGGAAAAUAAAAUAAAAUAAAAUAAACUAGAAGGCACAUGAGGAUCACCCAUGUAAUAA [LROPPY Exclusion 4 - v03_deltaG=3.54 break up the As]	17	25.1
